The record followed here is US20040092712A1 (published 2004).

The target in one assay is F1024-1-3 antibody. Nature of the assay: competition ELISA: 4-fold diluted serum mixed with 1 µg/mL peroxidase-labeled F1024-1-3 on immobilised human sCD14(1-356).
The target in the next assay is T1, sCD14(1-307)S286C (human, UniProt P08571 20-326).
T1 construct: CD14 mutant polypeptide expressed in COS-1 cells; also called CD14(s286C)
T1 sequence: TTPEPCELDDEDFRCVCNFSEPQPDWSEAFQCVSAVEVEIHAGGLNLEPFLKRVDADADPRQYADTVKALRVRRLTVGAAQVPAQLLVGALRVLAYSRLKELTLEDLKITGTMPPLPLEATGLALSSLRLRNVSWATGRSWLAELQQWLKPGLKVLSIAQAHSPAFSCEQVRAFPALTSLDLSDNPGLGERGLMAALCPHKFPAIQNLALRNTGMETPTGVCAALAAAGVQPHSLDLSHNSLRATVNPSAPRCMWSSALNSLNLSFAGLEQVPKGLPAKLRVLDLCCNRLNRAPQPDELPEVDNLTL
Briefly: BIACORE 3000, injected over immobilised sCD14(1-356), no LPS. A general note: Surface plasmon resonance follows binding to a sensor surface in real time, without labels.

B1: rhesus monkey soluble type CD14 (serum) (receptor)
chain: TTPEPCELDDEDFRCVCNFSEPHPDWSEAFQCVSAVEVEIRVGGLSLEPFLTRVDPDADPRQYADTIKALRVRRLTVGAAQVPAQLLVGALRVLAYSRLQELTLEDLEITGTMPPLPLEATGLALSSLRLHNVSWATGRSWLAELQQWLKPGLKVLSIAQAHSPAFSCEQVRAFPALTSLDLSDNPGLGERGLIAALCPHKFPALQNLALRNTGMETPTGVCAALAAAGVQPHSLDLSHNSLRATANPSAPRCMWSSALNSLNLSFAGLEQVPKGLPAKLRVLDLSCNRLNRRPRPDELPQVDNLALDGNPFLVPGTALPQEGSMN
For the molecule B1, the inhibition ratio of binding of F1024-1-3 antibody to human CD14 in the assay with F1024-1-3 antibody turned out to be 44%.

B2: crab-eating macaque soluble type CD14 (serum) (receptor)
chain: TTPEPCELDDEDFRCVCNFSEPHPDWSEAFQCVSAVEVEIRVGGLSLEPFLTRVDPDADPRQYADTIKALRVRRLTVGAAQVPAQLLVGALRVLAYSRLQELTLEDLEITGTMPPLPLEATGLALSSLRLHNVSWATGRSWLAELQQWLKPGLKVLSIAQAHSPAFSCEQVRAFPALTSLDLSDNPGLGERGLIAALCPHKFPALQNLALRNTGMETPTGVCAALAAAGVQPHSLDLSHNSLRATANPSAPRCMWSSALNSLNLSFAGLEQVPKGLPAKLRVLDLSCNRLNRRPRPDELPQVDNLALDGNPFLVPGTALPQEGSMN
Turning to B2, the inhibition ratio of binding of F1024-1-3 antibody to human CD14 with F1024-1-3 antibody amounted to 57%.

B3: rabbit soluble type CD14 (rabbit serum) (receptor, rabbit (New Zealand white), UniProt Q28680 18-342, looked up)
chain: STDTPEPCELDDDDIRCVCNFSDPQPDWSSALQCMPAVQVEMWGGGHSLEQFLRQADLYTDQRRYADVVKALRVRRLTVGAVQVPAPLLLGVLRVLGYSRLKELALEDIEVTGTAPPPPPLEATGPALSTLSLRNVSWPKGGAWLSELQQWLKPGLQVLNIAQAHTLAFSCEQVRTFSALTTLDLSENPGLGERGLVAALCPHKFPALQDLALRNAGMKTLQGVCAALAEAGVQPHHLDLSHNSLRADTQRCIWPSALNSLNLSFTGLQQVPKGLPAKLNVLDLSCNKLNRAPQPGELPKVVNLSLDGNPFLVPGASKLQEDLTN
For the molecule B3, in the assay with F1024-1-3 antibody, the inhibition ratio of binding of F1024-1-3 antibody to human CD14 amounted to 52%.

B4: sCD14(1-356) (receptor)
chain: TTPEPCELDDEDFRCVCNFSEPQPDWSEAFQCVSAVEVEIHAGGLNLEPFLKRVDADADPRQYADTVKALRVRRLTVGAAQVPAQLLVGALRVLAYSRLKELTLEDLKITGTMPPLPLEATGLALSSLRLRNVSWATGRSWLAELQQWLKPGLKVLSIAQAHSPAFSCEQVRAFPALTSLDLSDNPGLGERGLMAALCPHKFPAIQNLALRNTGMETPTGVCAALAAAGVQPHSLDLSHNSLRATVNPSAPRCMWSSALNSLNLSFAGLEQVPKGLPAKLRVLDLSCNRLNRAPQPDELPEVDNLTLDGNPFLVPGTALPHEGSMQSVVVPACARSTLSVGVSGTLVLLQGARGFA
notes: Expressed from pM1656 in COS-1 cells; GPI-anchoring sites Asn326 and Gly328 replaced by Gln and Val to give a soluble protein; In the BIACORE experiments it stood as a complex with LPS or FITC-LPS; also called full-length type human soluble CD14; recombinant soluble type CD14
For the molecule B4, the binding result with sCD14(1-307)S286C was “no binding (tested: 10 µg/mL)”.

B5: human serum-derived soluble type CD14 (receptor)
chain: TTPEPCELDDEDFRCVCNFSEPQPDWSEAFQCVSAVEVEIHAGGLNLEPFLKRVDADADPRQYADTVKALRVRRLTVGAAQVPAQLLVGALRVLAYSRLKELTLEDLKITGTMPPLPLEATGLALSSLRLRNVSWATGRSWLAELQQWLKPGLKVLSIAQAHSPAFSCEQVRAFPALTSLDLSDNPGLGERGLMAALCPHKFPAIQNLALRNTGMETPTGVCAALAAAGVQPHSLDLSHNSLRATVNPSAPRCMWSSALNSLNLSFAGLEQVPKGLPAKLRVLDLSCNRLNRAPQPDELPEVDNLTLDGNPFLVPGTALPHEGSMNSGVVPACARSTLSVGVSGTLVL
For B5, in the assay with F1024-1-3 antibody, the inhibition ratio of binding of F1024-1-3 antibody to human CD14 worked out at 83%.
